From article PMC2173256 (The Journal of Cell Biology, 2002)

Tests used:
Experiment in all cases: co-IP
FLAG XIAP H343A = FLAG XIAP H343A (UniProt P98170 1-497, H343A)
FLAG XIAP V146A E314S = FLAG XIAP V146A E314S (UniProt P98170 1-497, V146A | E314S)
FLAG XIAP D214S N259D = FLAG XIAP D214S N259D (UniProt P98170 1-497, D214S | N259D)
FLAG XIAP N259D = FLAG XIAP N259D (UniProt P98170 1-497, N259D)
FLAG XIAP T143A E314S = FLAG XIAP T143A E314S (UniProt P98170 1-497, T143A | E314S)
[1] = molecular target: FLAG XIAP D148A W310A E314S (UniProt P98170 1-497, D148A | W310A | E314S)
FLAG XIAP D214S = FLAG XIAP D214S (UniProt P98170 1-497, D214S)
FLAG XIAP N259D E314S = FLAG XIAP N259D E314S (UniProt P98170 1-497, N259D | E314S)
[2] = molecular target: FLAG XIAP D148A D214S H343A (UniProt P98170 1-497, D148A | D214S | H343A)
FLAG XIAP W310A E314S = FLAG XIAP W310A E314S (UniProt P98170 1-497, W310A | E314S)
[3] = molecular target: FLAG XIAP (X-linked mammalian inhibitor of apoptosis protein), wild-type, full length (UniProt P98170 1-497)
FLAG XIAP E314S = FLAG XIAP E314S (UniProt P98170 1-497, E314S)
FLAG XIAP D148A E314S = FLAG XIAP D148A E314S (UniProt P98170 1-497, D148A | E314S)
FLAG XIAP D148A G306S = FLAG XIAP D148A G306S (UniProt P98170 1-497, D148A | G306S)
FLAG XIAP D214S H343A = FLAG XIAP D214S H343A (UniProt P98170 1-497, D214S | H343A)
FLAG XIAP D214S H343A, sequence (P98170 whole entry D214S/H343A): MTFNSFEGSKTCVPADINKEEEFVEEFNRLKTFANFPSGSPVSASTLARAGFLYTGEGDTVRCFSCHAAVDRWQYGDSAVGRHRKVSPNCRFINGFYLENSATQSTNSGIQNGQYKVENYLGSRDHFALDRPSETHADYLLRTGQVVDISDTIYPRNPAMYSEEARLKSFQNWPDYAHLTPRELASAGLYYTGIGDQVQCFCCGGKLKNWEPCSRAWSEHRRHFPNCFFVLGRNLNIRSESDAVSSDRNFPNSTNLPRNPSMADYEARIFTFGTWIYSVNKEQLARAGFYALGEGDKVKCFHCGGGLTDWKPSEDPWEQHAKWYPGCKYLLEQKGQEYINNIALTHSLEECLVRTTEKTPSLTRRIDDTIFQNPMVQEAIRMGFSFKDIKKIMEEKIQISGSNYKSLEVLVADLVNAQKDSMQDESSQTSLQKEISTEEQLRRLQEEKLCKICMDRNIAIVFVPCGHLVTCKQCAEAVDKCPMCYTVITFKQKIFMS

FLAG XIAP V146A E314S, sequence (P98170 whole entry V146A/E314S): as the sequence (P98170 whole entry D214S/H343A) above, with V146A, S214D, E314S, A343H counted along it
FLAG XIAP (X-linked mammalian inhibitor of apoptosis protein), wild-type, full length, sequence (P98170 whole entry): as the sequence (P98170 whole entry D214S/H343A) above, with S214D, A343H counted along it
FLAG XIAP D148A D214S H343A, sequence (P98170 whole entry D148A/D214S/H343A): as the sequence (P98170 whole entry D214S/H343A) above, with D148A counted along it
FLAG XIAP T143A E314S, sequence (P98170 whole entry T143A/E314S): as the sequence (P98170 whole entry D214S/H343A) above, with T143A, S214D, E314S, A343H counted along it
FLAG XIAP W310A E314S, sequence (P98170 whole entry W310A/E314S): as the sequence (P98170 whole entry D214S/H343A) above, with S214D, W310A, E314S, A343H counted along it
FLAG XIAP N259D E314S, sequence (P98170 whole entry N259D/E314S): as the sequence (P98170 whole entry D214S/H343A) above, with S214D, N259D, E314S, A343H counted along it
FLAG XIAP D148A G306S, sequence (P98170 whole entry D148A/G306S): as the sequence (P98170 whole entry D214S/H343A) above, with D148A, S214D, G306S, A343H counted along it
FLAG XIAP D148A W310A E314S, sequence (P98170 whole entry D148A/W310A/E314S): as the sequence (P98170 whole entry D214S/H343A) above, with D148A, S214D, W310A, E314S, A343H counted along it
FLAG XIAP H343A, sequence (P98170 whole entry H343A): as the sequence (P98170 whole entry D214S/H343A) above, with S214D counted along it
FLAG XIAP N259D, sequence (P98170 whole entry N259D): as the sequence (P98170 whole entry D214S/H343A) above, with S214D, N259D, A343H counted along it
FLAG XIAP D214S N259D, sequence (P98170 whole entry D214S/N259D): as the sequence (P98170 whole entry D214S/H343A) above, with N259D, A343H counted along it
FLAG XIAP D148A E314S, sequence (P98170 whole entry D148A/E314S): as the sequence (P98170 whole entry D214S/H343A) above, with D148A, S214D, E314S, A343H counted along it
FLAG XIAP E314S, sequence (P98170 whole entry E314S): as the sequence (P98170 whole entry D214S/H343A) above, with S214D, E314S, A343H counted along it
FLAG XIAP D214S, sequence (P98170 whole entry D214S): as the sequence (P98170 whole entry D214S/H343A) above, with A343H counted along it

B1: processed DIABLO (HA-tagged DIABLO) (natural protein)
chain: AVPIAQKSEPQSLSNEALMRRAVSLVTDSTSTFLSQTTYALIEAITEYTKAVYTLVSLYRQYTSLLGKMNSQEEDEVWQVIIGARVEMTSKQQEYLKLETTWMTAVGLSEMAAEAAYQTGADQASITARNHIQLVKSQVQEVRQLSQKAETKLAEAQTKELHQKAQEVSDEGADQEEEAYLRED
B1 was tested, and the “DIABLO binding relative to wild-type XIAP (arbitrary value, 10 = 100%)” value (FLAG XIAP H343A) was 10 arbitrary (10 = 100%), the “DIABLO binding relative to wild-type XIAP (arbitrary value, 10 = 100%)” value (FLAG XIAP V146A E314S) was 5 arbitrary (10 = 100%) and the “DIABLO binding relative to wild-type XIAP (arbitrary value, 10 = 100%)” value (FLAG XIAP D214S N259D) was 9 arbitrary (10 = 100%). For the same binder, the “DIABLO binding relative to wild-type XIAP (arbitrary value, 10 = 100%)” value (FLAG XIAP N259D) was 10 arbitrary (10 = 100%), the “DIABLO binding relative to wild-type XIAP (arbitrary value, 10 = 100%)” value (FLAG XIAP T143A E314S) was 5 arbitrary (10 = 100%) and the “DIABLO binding relative to wild-type XIAP (arbitrary value, 10 = 100%)” value [1] was 4 arbitrary (10 = 100%). The “DIABLO binding relative to wild-type XIAP (arbitrary value, 10 = 100%)” value (FLAG XIAP D214S) was 9 arbitrary (10 = 100%), the “DIABLO binding relative to wild-type XIAP (arbitrary value, 10 = 100%)” value (FLAG XIAP N259D E314S) was 5 arbitrary (10 = 100%) and the “DIABLO binding relative to wild-type XIAP (arbitrary value, 10 = 100%)” value [2] was 9 arbitrary (10 = 100%). For the same binder, the “DIABLO binding relative to wild-type XIAP (arbitrary value, 10 = 100%)” value (FLAG XIAP W310A E314S) was 4 arbitrary (10 = 100%), the “DIABLO binding relative to wild-type XIAP (arbitrary value, 10 = 100%)” value [3] was 10 arbitrary (10 = 100%) and the “DIABLO binding relative to wild-type XIAP (arbitrary value, 10 = 100%)” value (FLAG XIAP E314S) was 5 arbitrary (10 = 100%). The “DIABLO binding relative to wild-type XIAP (arbitrary value, 10 = 100%)” value (FLAG XIAP D148A E314S) was 5 arbitrary (10 = 100%), the “DIABLO binding relative to wild-type XIAP (arbitrary value, 10 = 100%)” value (FLAG XIAP D148A G306S) was 8 arbitrary (10 = 100%) and the “DIABLO binding relative to wild-type XIAP (arbitrary value, 10 = 100%)” value (FLAG XIAP D214S H343A) was 8 arbitrary (10 = 100%).
